Data: paper PMC4988437 (Channels, 2016)

Columns and labels:
Assay in all cases: FRET or BRET
CFP-Rem(1-275) = biological target: T1, CFP-Rem(1-275) (mouse, UniProt O35929 1-275)
T1 sequence (looked up): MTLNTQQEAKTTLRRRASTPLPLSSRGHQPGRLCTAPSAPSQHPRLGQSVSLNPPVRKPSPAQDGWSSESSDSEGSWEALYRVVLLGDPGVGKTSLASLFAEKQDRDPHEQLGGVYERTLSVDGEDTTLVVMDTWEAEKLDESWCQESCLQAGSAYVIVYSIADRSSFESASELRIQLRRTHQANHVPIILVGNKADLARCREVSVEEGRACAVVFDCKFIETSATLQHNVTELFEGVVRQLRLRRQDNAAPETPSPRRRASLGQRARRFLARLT

CFP-Rem(224-297) = biological target: T2, CFP-Rem(224-297) (mouse, UniProt O35929 224-297)
T2 sequence (looked up): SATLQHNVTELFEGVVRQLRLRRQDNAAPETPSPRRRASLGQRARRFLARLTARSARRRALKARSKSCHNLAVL

CFP-Rem(1-285) = biological target: T3, CFP-Rem(1-285) (mouse, UniProt O35929 1-285)
T3 sequence (looked up): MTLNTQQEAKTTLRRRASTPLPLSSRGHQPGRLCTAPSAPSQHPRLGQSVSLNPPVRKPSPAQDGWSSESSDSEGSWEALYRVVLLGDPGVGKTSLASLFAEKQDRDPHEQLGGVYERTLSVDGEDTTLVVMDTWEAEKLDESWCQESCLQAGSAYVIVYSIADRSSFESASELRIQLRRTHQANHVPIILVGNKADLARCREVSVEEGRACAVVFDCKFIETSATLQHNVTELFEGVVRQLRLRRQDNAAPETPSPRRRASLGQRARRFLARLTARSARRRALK

B1: YFP-tagged alpha1C N-terminus (domain or fragment)
chain: not shown
Question: What does the source list for B1?
Answer: FRET efficiency (CFP-Rem(1-275)): 0.04; FRET efficiency (CFP-Rem(224-297)): 0.439; FRET efficiency (CFP-Rem(1-285)): 0.071
